Earlier results as cited in article PMC5580235.
Read-outs that look alike come from different tables or passages of the source.

Columns and labels:
ICAM-1 (Homo sapiens) [1] = molecular target: ICAM-1 (Homo sapiens) (UniProt P05362)
ICAM-1 (Homo sapiens) [2] = molecular target: ICAM-1 (Homo sapiens) (UniProt P05362); remark: listed apart in the source
ICAM-1 (Homo sapiens) [3] = molecular target: ICAM-1 (Homo sapiens) (UniProt P05362); remark: listed apart in the source

Chain of ICAM-1 (Homo sapiens) (P05362 28-480): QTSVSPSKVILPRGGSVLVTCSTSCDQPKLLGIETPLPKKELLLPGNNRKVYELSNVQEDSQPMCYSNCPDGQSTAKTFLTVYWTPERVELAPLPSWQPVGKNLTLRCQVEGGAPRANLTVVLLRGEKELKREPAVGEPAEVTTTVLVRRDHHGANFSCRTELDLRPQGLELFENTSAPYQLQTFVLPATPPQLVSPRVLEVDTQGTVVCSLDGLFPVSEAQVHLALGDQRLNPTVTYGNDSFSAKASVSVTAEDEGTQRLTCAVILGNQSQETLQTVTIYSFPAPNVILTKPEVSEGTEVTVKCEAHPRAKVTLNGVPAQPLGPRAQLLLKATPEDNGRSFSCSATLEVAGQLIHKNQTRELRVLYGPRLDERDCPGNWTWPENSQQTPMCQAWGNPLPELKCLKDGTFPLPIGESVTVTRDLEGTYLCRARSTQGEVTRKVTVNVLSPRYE
Chain of LFA-1 (high affinity form) (P20701 26-1090): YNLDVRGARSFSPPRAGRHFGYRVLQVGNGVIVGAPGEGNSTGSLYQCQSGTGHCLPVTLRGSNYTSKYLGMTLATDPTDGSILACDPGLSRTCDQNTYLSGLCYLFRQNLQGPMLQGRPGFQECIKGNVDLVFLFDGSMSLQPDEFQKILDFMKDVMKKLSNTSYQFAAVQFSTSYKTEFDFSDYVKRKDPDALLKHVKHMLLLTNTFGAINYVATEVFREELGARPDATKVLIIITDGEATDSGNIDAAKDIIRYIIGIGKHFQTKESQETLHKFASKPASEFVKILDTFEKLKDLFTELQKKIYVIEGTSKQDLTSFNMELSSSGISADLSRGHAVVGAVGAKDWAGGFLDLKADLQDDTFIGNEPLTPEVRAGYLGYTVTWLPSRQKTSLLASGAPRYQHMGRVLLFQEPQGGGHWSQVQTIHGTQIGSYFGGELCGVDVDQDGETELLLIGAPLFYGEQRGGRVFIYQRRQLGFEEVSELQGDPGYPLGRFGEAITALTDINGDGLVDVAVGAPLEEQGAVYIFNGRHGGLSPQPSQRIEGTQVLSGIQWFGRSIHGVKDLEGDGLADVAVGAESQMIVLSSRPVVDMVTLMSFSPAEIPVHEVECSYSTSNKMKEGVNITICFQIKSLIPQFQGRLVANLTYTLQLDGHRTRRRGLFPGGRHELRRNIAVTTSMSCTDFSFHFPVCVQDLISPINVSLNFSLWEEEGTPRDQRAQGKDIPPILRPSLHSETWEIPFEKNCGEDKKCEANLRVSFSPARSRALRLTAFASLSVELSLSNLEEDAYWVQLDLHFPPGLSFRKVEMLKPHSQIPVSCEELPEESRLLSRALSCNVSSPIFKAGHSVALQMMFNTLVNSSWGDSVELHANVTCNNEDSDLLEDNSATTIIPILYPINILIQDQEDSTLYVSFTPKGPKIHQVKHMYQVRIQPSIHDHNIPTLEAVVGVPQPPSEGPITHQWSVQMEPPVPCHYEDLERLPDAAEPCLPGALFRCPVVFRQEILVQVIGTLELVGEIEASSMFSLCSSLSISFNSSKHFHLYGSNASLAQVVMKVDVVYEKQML
Chain of LFA-1 (high affinity form) (P05107 23-700, further chain): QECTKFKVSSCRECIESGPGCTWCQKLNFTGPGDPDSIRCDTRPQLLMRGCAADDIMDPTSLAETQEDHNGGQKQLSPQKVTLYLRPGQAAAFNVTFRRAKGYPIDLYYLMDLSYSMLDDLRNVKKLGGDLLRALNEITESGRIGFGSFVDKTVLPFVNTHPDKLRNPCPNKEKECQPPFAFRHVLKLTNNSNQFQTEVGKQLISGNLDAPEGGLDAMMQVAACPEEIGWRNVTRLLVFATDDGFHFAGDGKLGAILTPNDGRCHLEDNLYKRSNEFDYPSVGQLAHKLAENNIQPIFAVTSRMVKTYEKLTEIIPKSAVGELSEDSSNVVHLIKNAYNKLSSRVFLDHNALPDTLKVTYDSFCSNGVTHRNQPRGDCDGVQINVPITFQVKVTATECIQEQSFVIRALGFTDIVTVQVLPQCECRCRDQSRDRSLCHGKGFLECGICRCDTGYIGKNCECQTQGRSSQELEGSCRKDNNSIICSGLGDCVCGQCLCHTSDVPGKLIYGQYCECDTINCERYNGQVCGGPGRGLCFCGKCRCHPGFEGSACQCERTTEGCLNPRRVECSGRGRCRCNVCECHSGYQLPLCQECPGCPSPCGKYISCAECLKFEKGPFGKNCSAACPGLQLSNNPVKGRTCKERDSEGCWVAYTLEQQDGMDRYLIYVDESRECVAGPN
Chain of LFA-1 (intermediate affinity form) (P20701 26-1090): as the sequence (P20701 26-1090) above
Chain of LFA-1 (intermediate affinity form) (P05107 23-700, further chain): as the sequence (P05107 23-700, further chain) above
Chain of LFA-1 (low affinity form) (P20701 26-1090): as the sequence (P20701 26-1090) above
Chain of LFA-1 (low affinity form) (P05107 23-700, further chain): as the sequence (P05107 23-700, further chain) above

For “LFA-1 (high affinity form) (from UniProt P20701)”, the Kd (ICAM-1 (Homo sapiens) [1]) is listed as 0.15 µM.

For “LFA-1 (intermediate affinity form) (from UniProt P20701)”, the Kd (ICAM-1 (Homo sapiens) [2]) is given as 15 µM.

For “LFA-1 (low affinity form) (from UniProt P20701)”, the Kd (ICAM-1 (Homo sapiens) [3]) is given as 1500 µM.
